Data reported in the RNAGym collection of RNA variant scans (doi:10.1073/pnas.2313332121).
Variants at the floor of the assay were thinned out.

B1: TPR 5TU (parent)
chain: GGAUCUUCUCGAUCUAACAAAAAAGACAAAUCUGCCACAAAGCUUGAGAGCAUCUUCGGAUGCAGAGGCGGCAGCCUUCGGUGGCGCGAUAGCGCCAACGUUCUCAACUAUGACACGCAAAACGCGUGCUCCGUUGAAUGGAGUUUAUCAUG

Variants of: B1
Assay: polymerase ribozyme fitness, log enrichment relative to wild type (log ratio); higher = more active; in vitro selection for triplet polymerase activity
Method in brief: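 Fitness compares each genotype's enrichment to that of the wild type on a logarithmic scale, averaging replicates with inverse-variance weights. The logarithm is base 2. Enrichment came from Illumina sequencing of input and output libraries after one triplicate round of in vitro selection, which included frozen incubation at −7 °C, of PCR-built, transcribed mutant libraries of each subunit of a heterodimeric triplet polymerase ribozyme. Only genotypes with ≥10 input reads and ≥1 read per output were kept.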

Row | Variant | polymerase ribozyme fitness (log ratio)
1 | U13C C14G C57A U101G | -1.23
2 | C14A C38U G84U | -3
3 | U13A A41G C85G A147G | -2.67
4 | U13A A21C U56A A60G G92U U102A C114U C123U | -3.84
5 | A12U A40C G92A C118G | -3.87
6 | A12U C79U C93G C132G | ≤ -4.2
7 | C14A C116G | -0.826
8 | U13G G86U | -3.56
9 | A12U G92U C125U | -1.06
10 | U13G A29U C38G G70U G117U A120U C149U | ≤ -4.2
11 | U13C G50U G59A U82C A121U G136A | -1.14
12 | C14G | -2.09
13 | C14A | -1.08
14 | C14U | -1.06
15 | C14A C27G | ≤ -4.2
16 | U13G A39C G62A A107U U139A A142U | ≤ -4.2
17 | C14G A24C A26U C36A A73G A107U A119U U144A | ≤ -4.2
18 | C14A U53A G94C | -3.67
19 | U13C C18G A21U A40C U53G A60U U61A G94U G100A G126A | ≤ -4.2
20 | C14A C69G C75A G92U G140U | ≤ -4.2
21 | U13G G48A C93A C125G | ≤ -4.2

Row | Variant | polymerase ribozyme fitness (log ratio)
22 | A12U C36U G84U | -4.11
23 | A12U C85U G136U | -3.16
24 | A12U C118U A119C G136A G143C | -3.19
25 | C14G A26G U56G A73U G143A | ≤ -4.2
26 | C14A A19C G58U A89U | -2.28
27 | C14G U55A C96U | -3.27
28 | U13G A24U A28U A29U C54U C69A C76G G94U A97C U135C | ≤ -4.2
29 | U13G C69A | ≤ -4.2
30 | A12G U144G | 0.592
31 | A12U G25C C35U U77G G94U | ≤ -4.2
32 | C14A A17G U31A G59A C75G C95U U101G A113U A121U | ≤ -4.2
33 | C14G G48C U146A | -4.06
34 | A12U C93U A97U C103U C105U G133U | ≤ -4.2
35 | A12U A23U A40U C87A G88C G117U | ≤ -4.2
36 | A12U C35G C36G U55G G86U | ≤ -4.2
37 | C14A U61G U111A A121C | ≤ -4.2
38 | C14U A16U C27A A30G G42U C51U C93A | ≤ -4.2
39 | C14A U82A G92A | ≤ -4.2
40 | U13A A20U C35A G50A G83C C118G A119U C132U | ≤ -4.2
41 | C14G U139G U144G | -1.38
42 | C14A G46C C75G C87A A89U U90G C96U U102G G140A | ≤ -4.2

Row | Variant | polymerase ribozyme fitness (log ratio)
43 | C14A G48A A91U G100A U101C U134A | ≤ -4.2
44 | C14G A20C G92C C125G | -3.88
45 | U13A A98U U148G | ≤ -4.2
46 | C14G G42U G46C G92C A119U G128A | ≤ -4.2
47 | C14G A21G G34A A37C G50C C57G A60C A64G | ≤ -4.2
48 | U13A C76U C105G C114U | ≤ -4.2
49 | C14A A41C G94C | -2.95
50 | C14G G25A U55A U127C | ≤ -4.2
51 | U13C C76A U82G C85U C118G | -2.92
52 | C14G G94A A106C G136A | -3.64
53 | C14G U15G A24G G58C C87G C108A C114U G136A | ≤ -4.2
54 | A12U A17G A23G C35U G83A C87G G136U | ≤ -4.2
55 | A12U C43U C63U U90C C105G G140A | ≤ -4.2
56 | C14G C27G G58A G86U U127C | -4.16
57 | C14G U56A | -2.57
58 | C14G G94A | -2.61
59 | C14G G94C | -2.23
60 | C14G A28C A47G U53A G84U | ≤ -4.2
61 | C14G U56A A73G U135C | -4.12
62 | C14G A39C C54G G71U C79G | ≤ -4.2
63 | C14G C93U | -3.66

Row | Variant | polymerase ribozyme fitness (log ratio)
64 | U13G G50U C93U | -3.9
65 | U13A U15C A26C C93A | -3.05
66 | C14A A40U C76U U78G G84A C103G G128A G141C | ≤ -4.2
67 | C14G U61G | -3.62
68 | C14G U61A | -3.55
69 | U13G A21U A22C U82G G92U A98C C116U G136A | -4.02
70 | C14U A21C C27U C36A G62U G80C G86A A137C | -3.96
71 | C14U A21G A24C A28U U53C C75U | ≤ -4.2
72 | C14G C35U G42C A52U C75A C79G G92C C118U G140C | -4.09
73 | U13G A37U U55A C57A C76U G86A U127C | ≤ -4.2
74 | C14A C85A C129U | -2.79
75 | A12U G58U A60U G86C A107U G133U C149G | ≤ -4.2
76 | C14G G83A G117U U127G | ≤ -4.2
77 | A12U C14G A29C C32U U45A G80C | ≤ -4.2
78 | C14G G50C C51U C79U C85A C125A | ≤ -4.2
79 | U13G A52C C85G G86U C129G | ≤ -4.2
80 | U13C U61C C85U A89C U144A | ≤ -4.2
81 | A12U C18U A47G C85A C93A A98C A121U | ≤ -4.2
82 | C14G C54G G68C C85U C105A C114A A137U | ≤ -4.2
83 | C14G G58A | -2.24
84 | C14G A39U C57G | -4.06
